Measured values published in patent US20080057492A1, “Interacting site for gp41 on gp120 of hiv-1” (priority 2002, published 2008).

How the values were obtained:
Assay in all cases: cell-based or functional assay
[1] = molecular target: Chimera P/7CD4bs envelope glycoprotein
[2] = molecular target: Chimera P/7CD4bs/V3 envelope glycoprotein
[3] = molecular target: MN-P envelope glycoprotein (neutralization resistant primary clone of the HIV-1 MN strain) (HIV-1 MN strain) (UniProt P05877)

With monoclonal antibody 4.8d as the substance, how does the fifty percent neutralization concentration (pseudotyped virus) [1] read?
The fifty percent neutralization concentration (pseudotyped virus) was 60 ng/mL.

What about the fifty percent neutralization concentration (pseudotyped virus) [2] of the same substance?
The fifty percent neutralization concentration (pseudotyped virus) was 20 ng/mL.

And the fifty percent neutralization concentration (pseudotyped virus) [3]?
The fifty percent neutralization concentration (pseudotyped virus) was > 2.5 µg/mL.

How did the fifty percent neutralization concentration (pseudotyped virus) [1] turn out when monoclonal antibody 17b was run?
The fifty percent neutralization concentration (pseudotyped virus) was 480 ng/mL.

And the fifty percent neutralization concentration (pseudotyped virus) [2]?
Its fifty percent neutralization concentration (pseudotyped virus) is 210 ng/mL.

What about the fifty percent neutralization concentration (pseudotyped virus) [3] of the same substance?
Its fifty percent neutralization concentration (pseudotyped virus) is > 2.5 µg/mL.

Which fifty percent neutralization concentration (pseudotyped virus) [1] does the source give for monoclonal antibody 19b here?
Its fifty percent neutralization concentration (pseudotyped virus) is 60 ng/mL.

And the fifty percent neutralization concentration (pseudotyped virus) [2]?
The fifty percent neutralization concentration (pseudotyped virus) was 16 ng/mL.

And the fifty percent neutralization concentration (pseudotyped virus) [3]?
Its fifty percent neutralization concentration (pseudotyped virus) is > 2.5 µg/mL.
